The results in this text go back to article PMC7921785.

The data set concerns the target T1, rPcDp1 (recombinant Dp1) (Pseudosciaena crocea (large yellow …, UniProt D2CFQ6 1-412)).
T1 sequence: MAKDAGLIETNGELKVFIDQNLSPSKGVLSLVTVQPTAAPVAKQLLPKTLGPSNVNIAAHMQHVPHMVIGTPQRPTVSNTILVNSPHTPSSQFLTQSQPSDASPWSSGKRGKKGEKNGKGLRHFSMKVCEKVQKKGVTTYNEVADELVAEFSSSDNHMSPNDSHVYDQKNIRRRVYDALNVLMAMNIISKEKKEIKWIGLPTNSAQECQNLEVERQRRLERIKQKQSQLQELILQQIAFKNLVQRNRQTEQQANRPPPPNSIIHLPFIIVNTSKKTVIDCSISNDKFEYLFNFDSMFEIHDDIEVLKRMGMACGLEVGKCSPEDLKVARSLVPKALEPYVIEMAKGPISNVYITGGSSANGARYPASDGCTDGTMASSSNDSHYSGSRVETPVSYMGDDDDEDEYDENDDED
Nature of the data set: EMSA. For orientation: Mobility shift assays separate free from complexed probe on a gel.

B1: wE2F (WE2Fsite) (dsDNA)
DNA 1: GAGATGACGTAGTTTTCGCGCGAAACTAG
DNA 2: CTAGTTTCGCGCGAAAACTACGTCATCTC
Consider B1, for which the binding result was “binds”.
